Measured values reported in patent US20130289246A1 (VANDERBILT UNIVERSITY, published 2013).
Read-outs that look alike come from different tables or passages of the source.

Legend:
[1] = biological target: T1, recombinant soluble trimeric 1918 H1 HA (A/South Carolina/1/1918, wild type) (Influenza A virus A/South …, UniProt Q9WFX3 18-529); test: ELISA, supernate
[2] = biological target: T2, recombinant soluble 1968 H3 HA (A/Aichi/2/1968) (Influenza A virus A/Aichi/2/1968 (H3N2), UniProt P03437 17-530); test: ELISA, supernate
[3] = biological target: T1, recombinant soluble trimeric 1918 H1 HA …; test: ELISA, supernate; remark: listed apart in the source
[4] = biological target: T2, recombinant soluble 1968 H3 HA …; test: ELISA, supernate; remark: listed apart in the source
[5] = biological target: T1, recombinant soluble trimeric 1918 H1 HA …; test: ELISA, supernate; remark: listed apart in the source
[6] = biological target: T2, recombinant soluble 1968 H3 HA …; test: ELISA, supernate; remark: listed apart in the source
[7] = biological target: HA of A/South Carolina/1/1918 (H1N1), wild type, on VLP (Influenza A virus A/South …, UniProt Q9WFX3 18-566); test: cell-based or functional assay
[8] = biological target: HA of A/swine/Iowa/15/1930 (H1N1) virus (Influenza A virus (H1N1)); test: cell-based or functional assay
[9] = biological target: HA of A/Weiss/1943 (H1N1) virus (Influenza A virus (H1N1)); test: cell-based or functional assay
[10] = biological target: HA of A/L3/1947 (H1N1) virus (Influenza A virus (H1N1)); test: cell-based or functional assay
[11] = biological target: HA of A/New Jersey/11/1976 (H1N1) virus (Influenza A virus (H1N1)); test: cell-based or functional assay
[12] = biological target: HA of A/USSR/92/1977 (H1N1) virus (Influenza A virus (H1N1)); test: cell-based or functional assay
[13] = biological target: HA of A/New Caledonia/20/1999 (H1N1) virus (Influenza A virus (H1N1)); test: cell-based or functional assay
[14] = biological target: HA of A/Brisbane/59/2007 (H1N1) virus (Influenza A virus (H1N1)); test: cell-based or functional assay
[15] = biological target: HA of A/California/04/2009 (H1N1) virus (Influenza A virus (H1N1)); test: cell-based or functional assay
[16] = biological target: T2, recombinant soluble 1968 H3 HA …; test: ELISA, unconcentrated supernate
[17] = biological target: T2, recombinant soluble 1968 H3 HA …; test: ELISA, recombinant mAb

B1: mAb 3E22 (antibody, V domains shown)
VH: EVQLVESGAEVKKPGASVKVSCKASGYTFSRYYIHWVRQAPGQELEWMGWINPDSGDTNYAQKFRGRVTMARDTSISTVYMELNSLRYDDTAVYFCARIIWSSSGMDVWGQGTTVTVS
VL: QSALTQPASVSGSPGQSITISCTGTSSDVGSYNLVSWYQQHPGKAPKLMIYEVSKRPSGVSNRFSGSKSGNTASLTISGLQAEDEADYYCHLYVGSSNWVFGGGTKLAVLG
- OD [1]: 0.741 OD
- OD [2]: 0.379 OD

B2: mAb 6J24 (antibody, V domains shown)
VH: EVQLVESGGGLVQPGRSLRLSCVGSGFNFDGYAMQWVRQVPGKGLEWVSGISWHSDSTGYADSVRGRFTISRDNAKNSLYLQMDSLRPEDTAFYYCGKSIGHVGGSYRHPIDYWGQGTLVTVS
VL: DIQLTQSPSSLSASVGDRVTITCRASQGITDYLAWYQQKPGTIPKLLIYAASTLQSGVPSRFSGGGYGTDFTLTISSLQPEDVATYYCQKYNSAPLTFGGGTKVEIKR
- OD [3]: 0.072 OD

B3: mAb 10E15 (antibody, V domains shown)
VH: EVQLLESGGGVVQPGRSLRLSCAASGFTFRTYGMHWVRQAPGKGLEWVAVISHDGNLKYYGGSVKGRFTISRDNSKNALYLQMNSLRVDDTALYYCARGIGITDAFDIRGQGTMVVVS
VL: QSVLTQPPSVSAAPGQKVTISCSGSSSNIGKNYVSWYQQLPGTAPKLLIYDNDKRPSGIPDRFSGSKSGTSATLGITGLQTGDEADYHCGAWDSSLNGGVFGGGTKVTVLG
- OD [4]: 0.074 OD

B4: mAb 5J8 (antibody, V domains shown)
VH: EVQLVESGPGLVKPSDILSLTCAVSGYSISSNYYWGWIRQPPGKGLEWIGSIYHSGSTYYKPSLESRLGISVDTSKNQFSLKLSFVSAADTAVYYCARHVRSGYPDTAYYFDKWGQGTLVTVS
VL: SYVLTQPPSVSVAPGETARISCGGNNIGTKVLHWYQQTPGQAPVLVVYDDSDRPSGIPERFSGSNSGNTATLTISRVEVGDEADYYCQVWDISTDQAVFGGGTKLTVLG
- OD [5]: 0.262 OD
- OD [6]: 0.078 OD
- HAI activity [7]: 0.04 µg/mL
- HAI activity [8]: 0.04 µg/mL
- Neut titer [8]: < 0.025 µg/mL
- HAI activity [9]: 5 µg/mL
- Neut titer [9]: 10 µg/mL
- HAI activity [10]: 0.08 µg/mL
- Neut titer [10]: 0.1 µg/mL
- HAI activity [11]: 0.32 µg/mL
- HAI activity [12]: 0.63 µg/mL
- Neut titer [12]: 0.2 µg/mL
- HAI activity [13]: > 20 µg/mL
- Neut titer [13]: > 20 µg/mL
- HAI activity [14]: > 20 µg/mL
- HAI activity [15]: 0.09 µg/mL
- Neut titer [15]: 0.0017 µg/mL
- binding result [16]: no binding

B5: mAb 3N6 (recombinant) (antibody, V domains shown)
VH: QVQLQESGPGLVKPSETLSLTCSVSGGSINYYYWSWIRQPPGKGLECIGYISDTGRTYYNPSLRSRVTISVDTSKNQFSLNLTSMTAADTAVYYCARDPTGSRQKNAFDMWGQGTMVTVS
VL: AIQMTQSPSSLSASVGDRVTITCRASQNIRSYLNWYQQKPGKAPNLLIYGTTSLESGVPSRFSGSGSGTDFTLTISSLQPEDFATYYCQQSYHTPQTFGQGTKVEIKR
- OD [17]: 0.069 OD
